PMC7018707, “FUS Recognizes G Quadruplex Structures Within Neuronal mRNAs”

Biological target: full-length FUS wild type (UniProt P35637 1-526)
Assay: steady-state fluorescence (2-AP); 150 mM KCl, 5-fold excess BSA; Fluorescence: 10 mM cacodylic acid pH 6.5, 150 mM KCl, 23 C, 150 or 200 nM RNA, 5-fold excess BSA or HCV peptide; pull-down: 5 uM probe annealed in the same buffer, room temperature, RIPA lysate and washes; native PAGE 20%, RNA:peptide 1:1 to 1:3
Conditions: protein: recombinant, G quadruplex

Sequence of full-length FUS wild type (P35637 whole entry): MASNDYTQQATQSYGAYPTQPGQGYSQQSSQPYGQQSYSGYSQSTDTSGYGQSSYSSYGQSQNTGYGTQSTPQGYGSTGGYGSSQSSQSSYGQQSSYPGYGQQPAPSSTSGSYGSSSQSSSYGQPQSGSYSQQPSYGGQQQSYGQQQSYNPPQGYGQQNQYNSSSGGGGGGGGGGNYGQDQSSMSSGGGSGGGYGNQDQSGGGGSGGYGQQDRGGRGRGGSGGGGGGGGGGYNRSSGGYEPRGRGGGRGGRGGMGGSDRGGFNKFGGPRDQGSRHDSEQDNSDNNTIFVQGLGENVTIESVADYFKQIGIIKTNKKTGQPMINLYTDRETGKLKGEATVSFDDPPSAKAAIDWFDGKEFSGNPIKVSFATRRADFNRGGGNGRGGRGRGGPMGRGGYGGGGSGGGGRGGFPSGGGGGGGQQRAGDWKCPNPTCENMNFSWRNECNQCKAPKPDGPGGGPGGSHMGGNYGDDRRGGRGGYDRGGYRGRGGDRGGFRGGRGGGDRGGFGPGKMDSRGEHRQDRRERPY

For GGGGUUGGGGAGGGUGUAGGGGGUGGGG (structured_RNA, A18 replaced by 2-aminopurine) [Shank1a GQ 2-AP], which Kd (label: 2-AP at position 18) is on record?
The Kd was 88 ± 27 nM.

Which Kd (label: 2-AP at position 4) does the source give for GGGAGGGAGGGUGGG (structured_RNA, A4 replaced by 2-aminopurine) [PSD-95 GQ2 2-AP] here?
The Kd was 28 ± 10 nM.
